From publication PMC9861546

What was measured:
[1] = target: chimeric L1:P18I10 capsid protein (HPV16 L1 with the HIV-1 P18I10 peptide in the DE loop), VLPs (human papillomavirus type 16 | HIV-1) (UniProt P03101); test: cross-linking; disulfide cross-linking seen by non-reducing SDS-PAGE; VLPs in Laemmli sample buffer without or with 5% 2-mercaptoethanol, room temperature, 24 h; blot with anti-HPV16 L1 CAMVIR-1
[2] = target: chimeric L1:T20 capsid protein (HPV16 L1 with the HIV-1 T20 peptide in the DE loop), VLPs (human papillomavirus type 16 | HIV-1) (UniProt P03101); test: as above

## chimeric L1:P18I10 capsid protein (HPV16 L1 with the HIV-1 P18I10 peptide in the DE loop), VLPs (from UniProt P03101 1-129; P03101 137-505)
[1]
  percent of L1 disulfide bonded into dimers or pentamers: 70%

## chimeric L1:T20 capsid protein (HPV16 L1 with the HIV-1 T20 peptide in the DE loop), VLPs (from UniProt P03101 1-129; P03101 137-505)
[2]
  percent of L1 disulfide bonded into dimers or pentamers: 70%
